Format in all cases: physicochemical
Series [1] is described as follows: Solubility in water at room temperature. The source says:
(§1) It has further been discovered that the sodium salt of the Formula 5 offers advantages with respect to dissolution in water.
It has further been discovered that the lyophilized formulation offers advantages with respect to dissolution in water.

A short description of series [2]: Aggregate formation on dissolution in water (filtration through 0.22μ filter).
Source text: as §1

A further series in a line: pH of aqueous solution. Conditions: unbuffered aqueous solution. The source says: (§2) An aqueous solution of the sodium salt of the instant invention has a pH of greater than 5.0. It has been discovered that the bond between the sugar moiety of doxorubicin and the tetracyclic doxorubicinone moiety is more readily cleaved at aqueous pH of less than 4.0. Therefore the sodium salt offers clear formulation advantages over the free acid, which has an unbuffered aqueous pH of less than 4.0.

A short description of series [3]: Thermal / storage stability. Conditions: sodium salt compared with free acid. As to the method:
as §2
In particular, the lyophilized formulation is prepared by the addition of a salt of a carboxylic acid to an aqueous solution of the previously described free acid compound 4. The amount of carboxylate salt that is added to the prelyophilization solution of the compound of formula 4 is from about 3 molar equivalents of base of trisodium citrate per mole of compound 4 to about 9 molar equivalents of base per mole of compound 4. Preferably, the amount of salt that is added is about 5 molar equivalents of base per mole of compound 4.

≈ marks a conversion by molar mass, not a printed value. Like-named read-outs stand apart in the source and are kept apart here. Starred links: 1 amine or outer side, 2 acyl side, 3 side chain; linkers in the order of their positions; H or OH if unused. Non-standard residues stand in square brackets, D forms with d. Residues, ends and D or L forms follow the SMILES beside them. ξ: configuration not given here. *: point of attachment. X1 = COc1cccc2c1C(=O)c1c(O)c3c(c(O)c1C2=O)C[C@@](O)(C(=O)CO)C[C@@H]3OC1CC(N*)C(O)C(C)O1; X2 = COc1cccc2c1C(=O)c1c(O)c3c(c(O)c1C2=O)CC(O)(C(=O)CO)CC3OC1CC(N*)C(O)C(C)O1; Glutaryl = O=C(CCCC(=O)[*:2])[*:1]; Hyp = O=C(O)[C@@H]1C[C@@H](O)CN1; Chg = N[C@H](C(=O)O)C1CCCCC1; ξChg = NC(C(=O)O)C1CCCCC1; ξHyp = O=C(O)C1CC(O)CN1; ξS = NC(CO)C(=O)O; ξA = CC(N)C(=O)O

In general, solubility refers to how much of the substance goes into solution per volume.

In the case of `COc1cccc2c1C(=O)c1c(O)c3c(c(O)c1C2=O)C[C@@](O)(C(=O)CO)C[C@@H]3OC1CC(NC(=O)[C@H](CC(C)C)NC(=O)[C@H](CO)NC(=O)[C@H](CCC(N)=O)NC(=O)[C@@H](NC(=O)[C@H](CO)NC(=O)[C@H](C)NC(=O)[C@@H]2C[C@@H](O)CN2C(=O)CCCC(=O)O)C2CCCCC2)C(O)C(C)O1` (stereo partly drawn) [Compound 4, [N-Glutaryl-(4-trans-L-Hyp)]-Ala-Ser-Chg-Gln-Ser-Leu-Dox] (Glutaryl-[Hyp]AS[Chg]QSL-X1), the solubility in series [1] is 13.8 mg/mL of water; in series [1] (pH 2.35) it was 3.98 mg/mL (≈ 2850 µM); in series [1] (pH 5.72, water), above 156 mg/mL.
For `COc1cccc2c1C(=O)c1c(O)c3c(c(O)c1C2=O)CC(O)(C(=O)CO)CC3OC1CC(NC(=O)[C@H](CC(C)C)NC(=O)C(CO)NC(=O)[C@H](CCC(N)=O)NC(=O)C(NC(=O)C(CO)NC(=O)C(C)NC(=O)C2CC(O)CN2C(=O)CCCC(=O)[O-])C2CCCCC2)C(O)C(C)O1.[Na+]` (stereo partly drawn) [Compound 5, [N-Glutaryl-(4-trans-L-Hyp)]-Ala-Ser-Chg-Gln-Ser-Leu-Dox Sodium salt] (Glutaryl-[ξHyp][ξA][ξS][ξChg]Q[ξS]L-X2), in series [2], the “formation of aggregates on dissolution in water” value is given as “dissolves in water without forming aggregates”. In addition, the “pH of aqueous solution” value in “pH of aqueous solution” is reported as “greater than 5.0”. Moreover, the thermal stability entry in series [3] is “more thermally stable than the corresponding free acid compound”. Further, the solubility in series [1] (room temperature, water, read-out: solubility) was above 277 mg/mL.

For the origin of these results see patent publication US6355611B1, “Salt form of a conjugate useful in the treatment of prostate cancer” (Merck & Co., Inc., priority 1999, dated 2002).
